Substitutions are numbered along the chain they refer to. Each block holds one binder with its values, some of them ahead of it.
How the values were obtained:
[1] = target: T1, cynomolgus monkey TNFR2 extracellular domain with C-terminal 10×His tag (cynomolgus monkey, UniProt P20333 23-257 (human entry)); assay: ELISA, plate coated with His-tagged TNFR2 ECD, serial dilution of chimeric IgG
T1 construct: also called cynoTNFR2-His; His-tag-cynoTNFR2
T1 chain: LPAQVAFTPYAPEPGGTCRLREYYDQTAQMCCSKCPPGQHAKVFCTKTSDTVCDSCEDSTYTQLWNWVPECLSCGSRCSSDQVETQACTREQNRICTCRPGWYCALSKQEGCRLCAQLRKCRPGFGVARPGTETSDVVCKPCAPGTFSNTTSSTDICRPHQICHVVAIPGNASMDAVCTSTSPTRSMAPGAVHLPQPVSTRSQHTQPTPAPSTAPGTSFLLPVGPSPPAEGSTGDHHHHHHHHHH
Method: TNFR2 binding of purified recombinant chimeric antibodies: The huTNFR2, cynoTNFR2 antigen binding ELISA was performed on the purified recombinant chimeric antibodies. Briefly, 384-well, clear, flat bottom, high binding plates (VWR, cat #29444-096) were coated overnight at 4° C. with 1 μg/mL of huTNFR2 or cynomolgus monkey TNFR2-His in PBS. After removing the coating solution, the plates were blocked by adding blocking buffer and incubated at room temperature for 1 hour. Plates were then washed 3 times with wash buffer. Serial dilution of purified antibodies in PBS was added to individual well followed by incubation at room temperature for 1 hour. Plates were washed 3 times with wash buffer. Then 50 μL/well of goat anti hu Kappa —AP (Southern Biotech, cat #2061-04) at 1:3000 dilution or goat anti human IgG Fc-AP at 1:3000 dilution in ELISA diluent was added, incubated at room temperature for 1 hour, washed 5 times with wash buffer and developed for 30 minutes with 50 μL/well of pNPP substrate. Plates were analyzed with a Bio-TEK at 405 nm. The chimeric TNFR2 antibodies were tested positive for binding to huTNFR2 and cynoTNFR2. The TNFR2 binding EC50 values are shown in Table 6, FIG. 1A (for huTNFR2) and FIG. 1B (for cynoTNFR2).

[2] = target: T1, cynomolgus monkey TNFR2 extracellular …; assay: BLI (Octet RED96), antibody captured on AHC biosensor, His-tagged TNFR2 in solution, 1:1 model
Method: (§1) The following kinetic assay was performed using anti-human IgG Fc capture (AHC) biosensors (ForteBio) in kinetics buffer (PBS, 0.1% Tween-20 and 1% bovine serum albumin): (a) antibody (2 μg/mL) for 300 sec, (b) baseline for 120 sec, (c) association with His-tag-huTNFR2 (2.5, 0.5 and 0 μg/mL) and His-tag-cynoTNFR2 (2.5, 0.5 and 0 μg/mL) for 420 sec and (d) dissociation for 1200 sec. Data fitting and analysis was performed with Octet data analysis software 8.0 (ForteBio) using a 1:1 binding model after Savitzky-Golay filtering.

[3] = target: T2, cynomolgus monkey TNFR2 extracellular domain as used in the blocking ELISA (cynomolgus monkey, UniProt P20333 23-257 (human entry)); assay: blocking ELISA: antibody pre-mixed with cynoTNFR2, binding of cynoTNFR2 to coated cynomolgus monkey TNFα read out
T2 construct: also called cynoTNFR2
T2 chain: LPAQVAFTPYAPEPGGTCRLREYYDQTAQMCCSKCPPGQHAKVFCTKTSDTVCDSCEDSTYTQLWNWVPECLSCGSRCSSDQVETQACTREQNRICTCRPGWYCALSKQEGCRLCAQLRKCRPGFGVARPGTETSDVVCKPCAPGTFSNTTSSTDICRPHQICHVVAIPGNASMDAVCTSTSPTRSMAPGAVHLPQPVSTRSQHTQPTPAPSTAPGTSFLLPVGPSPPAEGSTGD
Method: 96-well round bottom ELISA plates were coated overnight at 4° C. with 50 μL/well of 0.5 μg/mL human TNFα recombinant protein (R&D system, Cat #210-TA-100) in coating buffer. After removing the coating solution, blocking buffer was added into the plates followed by incubation at room temperature for 1 hour in order to block unspecific binding. During the blocking period, hybridoma antibodies samples were mixed with 0.5 μg/mL TNFR2-huFc at a 1:1 volume ratio and incubated at room temperature for another 1.5 hours. Then 50 μL/well of antigen-antibody mix solution was transferred into TNFα coated wells and incubated at room temperature for 1.5 hours. Plates were then washed 5 times with wash buffer. Then, 50 μL/well of goats anti-human IgG Fc-AP (Southern Biotech, cat #2014-04) at 1:2000 dilution in assay buffer was added, incubated at room temperature for 1 hour, washed 4 times with wash buffer and developed for 30 minutes with 50 μL/well of pNPP substrate. Plates were analyzed with a Synergy HT (Bio-TEK) at 405 nm. Parental hybridomas with the desired human and cynoTNFR2 binding as well as the ability to block human TNFR2 and human TNFα binding were prioritized for subcloning and further characterization. Subcloning was carried out with limited dilution and visual inspection was performed to ensure clonality. Hybridoma subclones were screened with the same binding and blocking assays and selected positive hits were cryopreserved.
TNFR2 blocking by purified recombinant chimeric antibodies: Human TNFR2 blocking ELISA was performed on purified recombinant chimeric antibodies following the same protocol as described above, except that 50 μL/well of serial dilution of purified antibodies (starting at 10 μg/mL, 1:3 dilution) in assay buffer was added into the reaction. The blocking IC₅₀ value represents the antibody concentration that inhibited 50% of huTNFR2 or cynoTNFR2 binding to coated human TNFα or cynomolgus monkey TNFα.

[4] = target: T3, human TNFR2 extracellular domain with C-terminal 10×His tag (human, UniProt P20333 23-257); assay: BLI (Octet RED96), antibody captured on AHC biosensor, His-tag-huTNFR2 in solution, 1:1 model
T3 construct: also called huTNFR2-His; His-tag-huTNFR2
T3 sequence: T1 chain with G16S, P36S, Q117P, H164N, A210E, G216S, V223M
Method: as §1, with “μg/mL)” for “μg/mL) and His-tag-cynoTNFR2 (2.5, 0.5 and 0 μg/mL)”, “filtering. The dissociation constant (Kd) was calculated as the ratio of Koff/Kon.” for “filtering.”

[5] = target: T4, human TNFR2 expressed on cells (Expi293 cells stably expressing huTNFR2) (human, UniProt P20333 23-461); assay: flow cytometry on Expi293 cells stably expressing huTNFR2, y axis TNFR2 binding (MFI)
T4 construct: whole, on cells; Also used here as the target of the Treg assay (native TNFR2 on human primary Treg cells); also called huTNFR2 expressed cells; Expi293-TNFR2 cells
T4 sequence (looked up): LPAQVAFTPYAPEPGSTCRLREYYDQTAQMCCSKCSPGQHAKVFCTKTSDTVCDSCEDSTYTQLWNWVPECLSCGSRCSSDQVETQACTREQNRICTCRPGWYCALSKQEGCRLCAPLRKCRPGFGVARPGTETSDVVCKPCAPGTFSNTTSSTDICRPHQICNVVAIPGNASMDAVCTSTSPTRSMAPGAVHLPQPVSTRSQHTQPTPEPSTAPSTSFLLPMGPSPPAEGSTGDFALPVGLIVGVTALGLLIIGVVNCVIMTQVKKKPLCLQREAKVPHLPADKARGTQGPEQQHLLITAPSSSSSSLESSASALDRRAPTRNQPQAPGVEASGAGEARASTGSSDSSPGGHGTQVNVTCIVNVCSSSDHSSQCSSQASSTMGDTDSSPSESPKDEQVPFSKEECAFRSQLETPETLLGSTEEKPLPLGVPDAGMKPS
Method: The coding sequence of huTNFR2 (Uniprot, P20333) was cloned into a lentiviral vector and the virus was packaged according to the instruction of the virus packaging kit (Lenti-X™ Packaging Single Shots, Cat #631275, Takada). The Expi293 cells were transduced with the recombinant virus and selected by puromycin. The cell line stably expressing huTNFR2 was incubated with anti-TNFR2 antibodies in PBS with 0.5% BSA, 1 mM EDTA, and 0.1% sodium azide (FACS buffer) for 30 minutes at 4° C. The cells were washed, and then incubated with 10 nM phycoerythrin (PE) conjugated anti-Human Fe Ab (Biolegend, cat #409304) for 20 minutes at 4° C. Cells were washed and then […] by flow cytometry with Attune (ThermoFisher Scientific). Data were analyzed with FlowJo software. Antibody binding is represented as median fluorescence intensity (MFI).
FACS based binding and blocking assays of humanized antibodies were performed as described above.

[6] = target: T3, human TNFR2 extracellular domain with …; assay: BLI (Octet RED96), antibody captured on AHC biosensor, His-tagged TNFR2 in solution, 1:1 model
Method: as §1

- EC50 [1]: 0.0494 nM
- Kd [2]: 0.672 nM
- koff [2]: 0.00065 s⁻¹
- kon [2]: 967000 M⁻¹ s⁻¹
- IC50 [3]: 0.968 nM
B1: 51B5 chimeric anti-TNFR2 antibody (antibody, V domains shown)
VH: QVQLQQSGAELARPGTSVKLSCKASGYTFTDDYIDWVKQRTGQGLEWIGEIYPGSGNTYYNEKFKGKATLTADKSSSTAYMQLSSLTSEDSAVYFCARSQVYGKIAMDHWGQGTSVTVSS
VL: DIVLTQSPASLAVSLGQRATISCRASESVDNSGNSFMHWYQQIPGQPPKLLIYRASNLESGIPARFSGSGARTDFTLTIDPVGAVDVATYYCQQSKEDPYTFGGGTKLEIE
notes: Chimeric: mouse variable domains with human constant regions, made as recombinant IgG1

- Kd [4]: 1.95 nM
- koff [4]: 0.000796 s⁻¹
- kon [4]: 408000 M⁻¹ s⁻¹
B2: SB1901-68 humanized anti-TNFR2 antibody (antibody, V domains shown)
VH: QVQLVQSGAEVKKPGASVKVSCKASGYTFTDDYIDWVRQATGQGLEWIGEIYPGSGNTYYNEKFKGRVTMTRDTSISTAYMELSSLRSEDTAVYYCARSQVYGKIAMDHWGQGTLVTVSS
VL: DIVMTQSPDSLAVSLGERATINCRASESVDNSGNSFMHWYQQKPGQPPKLLIYRASNLESGVPDRFSGSGSRTDFTLTISSLQAEDVAVYYCQQSKEDPYTFGQGTKVEIK

- EC50 (read off the curve) [5]: ~0.6 nM
B3: SB1901-82 (antibody, V domains shown)
VH: B2 VH with T41P, I48M, I76T, A79V
VL: B2 VL
notes: humanized version of 51B5; also called SB1901-82 humanized anti-TNFR2 antibody

- EC50 (read off the curve) [5]: ~0.6 nM
B4: SB1901-78 (antibody, V domains shown)
VH: B2 VH with R72A, T74K
VL: B2 VL
notes: humanized version of 51B5; also called SB1901-78 humanized anti-TNFR2 antibody

- Kd [4]: 1.25 nM
- koff [4]: 0.000513 s⁻¹
- kon [4]: 410000 M⁻¹ s⁻¹
B5: SB1901-69 humanized anti-TNFR2 antibody (antibody, V domains shown)
VH: B2 VH with I48M, T74K
VL: B2 VL with S71A, R72G

- EC50 (read off the curve) [5]: ~0.6 nM
- Kd [4]: 2.52 nM
- koff [4]: 0.000937 s⁻¹
- kon [4]: 373000 M⁻¹ s⁻¹
B6: SB1901-80 humanized anti-TNFR2 antibody (antibody, V domains shown)
VH: B2 VH with T41P, I76T, A79V
VL: B2 VL

- EC50 (read off the curve) [5]: ~0.6 nM
B7: SB1901-74 (antibody, V domains shown)
VH: B2 VH with D73N, S75A
VL: B2 VL
notes: humanized version of 51B5; also called SB1901-74 humanized anti-TNFR2 antibody

- Kd [6]: 3.77 nM
- koff [6]: 0.000886 s⁻¹
- kon [6]: 239000 M⁻¹ s⁻¹
B8: 6F12 chimeric anti-TNFR2 antibody (antibody, V domains shown)
VH: QIQLVQSGPELKKPGETVKISCKTSGYTFTIYGMNWVKQAPGKGLKWMGWIHTYTGEPTYADDFKGRFVFSLETSDSTAYLQINNLKSEDMATYFCVRRERYGSFWGQGTLVTVSA
VL: DIVLTQSPASLAVSLGQRATISCTASQSVDYGGVSYMNWYQQKPGQPPKLLIYGASNQESGIPVRFSGSGSGTDFTLNIHPVEEEDAATYYCQQSNEDPPTFGAGTKLELK
notes: as for B1

— patent publication US20250011448A1 (STAIDSON BIOPHARMA, published 2025)
